Source: patent US20230181750A1 (CRISPR THERAPEUTICS, published 2023)

B1: mask peptide M3 (peptide)
peptide: CTMPPSPRSKVIC
notes: Selected by phage display (Screen 2, XnCXnCXn library)
B2: mask peptide P2 (peptide)
peptide: HEEVHMRPNKLSLTWAYTGPQLR
notes: Selected by phage display (Screen 1, X15/X19 library)
B3: mask peptide P1 (peptide)
peptide: EVAPGKRWFYNHVKQVPHLV
notes: as for B2

Each binder was assayed against T1, anti-PTK7 antibody Ab181 (assay: phage display selection against Ab181, XnCXnCXn library).
T1 construct: also called unmasked antibody

Binder	binding result
CHIGKRPVPCLWI (Selected by phage display (Screen 2)) [mask peptide M9]	binds
CTMPSHAVASFLC (Selected by phage display (Screen 2)) [mask peptide M11]	binds
WCTIPSSMSIRLC (Selected by phage display (Screen 2)) [mask peptide M8]	binds
VCTYPPAHRTRFC (Selected by phage display (Screen 2)) [mask peptide M6]	binds
CTYPPRFHMHWLC (Selected by phage display (Screen 2)) [mask peptide M13]	binds
B1	binds
CTMPVHTYSQWLC (Selected by phage display (Screen 2)) [mask peptide M12]	binds
CTMPYHIHSIGLC (Selected by phage display (Screen 2)) [mask peptide M7]	binds
CTFPNTTMQRTFC (Selected by phage display (Screen 2)) [mask peptide M4]	binds
CTYPSWVAYIRFC (Selected by phage display (Screen 2)) [mask peptide M5]	binds
CYIGLRMVPCFHM (Selected by phage display (Screen 2)) [mask peptide M10]	binds
CTHVAQWAIKAFC (Selected by phage display (Screen 2)) [mask peptide M14]	binds

These binders were tested against T1, anti-PTK7 antibody Ab181 (assay: phage display selection against Ab181, X15/X19 library).

Binder	binding result
B2	binds
B3	binds
